This note sets out measurements from patent publication US20200247855A1 (published 2020).

Some targets named below: CXCL5; CXCL2; CXCL6; CXCL10_HUMAN (human, UniProt P02778 22-98); CXCL13; CXCL1_HUMAN (human, UniProt P09341 35-107); CXCL3_HUMAN (human, UniProt P19876 35-107); CXCL8_HUMAN (human, UniProt P10145 28-99).
What all share (test): BLI
Another assay deals with T1, CXCL11_HUMAN (human, UniProt O14625 22-94).
T1 chain: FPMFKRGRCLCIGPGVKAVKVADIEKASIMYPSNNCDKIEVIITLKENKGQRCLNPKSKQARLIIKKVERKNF

CXCL1_HUMAN, sequence (P09341 35-107): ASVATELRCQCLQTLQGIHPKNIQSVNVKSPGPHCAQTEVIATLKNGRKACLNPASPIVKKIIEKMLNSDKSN
CXCL8_HUMAN, sequence (P10145 28-99): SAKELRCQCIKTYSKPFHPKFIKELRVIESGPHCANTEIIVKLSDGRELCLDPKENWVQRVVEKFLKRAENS
CXCL3_HUMAN, sequence (P19876 35-107): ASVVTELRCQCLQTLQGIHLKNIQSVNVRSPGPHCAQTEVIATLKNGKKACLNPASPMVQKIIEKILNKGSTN
CXCL10_HUMAN, sequence (P02778 22-98): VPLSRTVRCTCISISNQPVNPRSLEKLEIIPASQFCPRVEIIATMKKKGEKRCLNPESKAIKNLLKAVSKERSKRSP

B1: P1086_IXORI (other)
chain: GSKGQRASQVSETSITAEFCDTSCTQGTDKTWSGCSGDCFCVHVGNDTEGRCMRWDGDYPSAEEEE
The Kd is the free concentration of one partner at which half of the binding sites on the other are occupied at equilibrium, for simple one-to-one binding. Take B1: the Kd with CXCL5 came out at 26 nM; with CXCL2, 34 nM; with CXCL6, 10.7 nM; in the assay with CXCL10_HUMAN, 18.7 nM; with CXCL13, 22.7 nM; in the assay with CXCL1_HUMAN, 11.4 nM. In the assay with CXCL3_HUMAN, this molecule gave a Kd of 15.2 nM.

B2: P1095_IXORI (other)
chain: HSPVAGSEVQKLTSDPNDDIDVSYCGMNCTVVNGKSDECSENCKCLHEGDDPKGICVAITYFGDWGDPNDDPKINEATPQTQIFEKKRK
For B2, the Kd with CXCL8_HUMAN was 110 nM.

B3: P1174_IXORI (other)
chain: LNNENELFSVEYCGANCTQQDNGSWTKCKGNCTCYHEDGKRYGLCLSTEYTDFTQFPKPTSEEIADASPRPKETNSH
As to B3, the dissociation constant Kd was determined as 81.7 nM in the assay with CXCL8_HUMAN and 15.4 nM with CXCL1_HUMAN.

B4: P458_IXORI (other)
chain: GSKQPGAAGSSSDSVEAVFCPTNCTKGTNGAWSGCSDDCICVHVGENTEGSCMKFSGDYDYPTPEA
Turning to B4, the Kd with CXCL5 came to 19.1 nM; with CXCL2, 4.55 nM; with CXCL6 it was 4.97 nM; with CXCL13 it was 13.8 nM; in the assay with CXCL1_HUMAN, 16.6 nM; in the assay with CXCL3_HUMAN, 7.83 nM.

B5: P1077_IXORI (other)
chain: GSKQLIGPQSSTNSIKAEFCDTNCTAGTNGIWNGCSGDCFCTHVGNSTEGRCMKITGFDEYPTSEAEE
B5: the Kd in the assay with CXCL5 came to 55.7 nM; in the assay with CXCL2, 264 nM; in the assay with CXCL6, 29.3 nM; with CXCL11_HUMAN it was 538 nM; in the assay with CXCL1_HUMAN, 7.53 nM; with CXCL3_HUMAN, 16 nM.

B6: P1229_IXORI (other)
chain: DDEFFTVDYCGMNCTLQQDGSWTPCTQKNAECKCYHESGSSVGLCLSTAYTDFNQFGDPNNSDLDAATPRHPDASSR
Take B6: the Kd with CXCL8_HUMAN turned out to be 30.7 nM; in the assay with CXCL1_HUMAN, 13.4 nM.

B7: P1168_IXORI (other)
chain: GQDTDGKEKSDEYELFTVEYCGTNCTQLENGSWTACTGKNGTCRCFHENDKKVGLCLSTEYTDFSEYPDPNSEEIKAASPLP
As to B7, the values for the Kd in the assay with CXCL2, with CXCL8_HUMAN and with CXCL1_HUMAN were 29.9 nM, 20.7 nM and 5.91 nM, respectively.

B8: P1104_IXORI (other)
chain: ESKEASASQGPGKSFKVEFCETNCTENNGVWSGCTGDCICVSVGDSKEGRCMDLGDKVIDTPVAQG
As to B8, the Kd in the assay with CXCL5 came to 245 nM; in the assay with CXCL2 it was 82.3 nM; in the assay with CXCL6, 34.3 nM; with CXCL13, 220 nM; in the assay with CXCL1_HUMAN it was 14.4 nM; with CXCL3_HUMAN, 43.7 nM.

B9: P1170_IXORI (other)
chain: LGDEDQLFSVEYCGTNCTQQDDGKWTPCSGKNGKCKCYHEDGKRYGLCLYTEYTDFSQYPNPEGSEIENTRPRP
With B9, the Kd amounted to 12.3 nM with CXCL8_HUMAN and 59.6 nM with CXCL1_HUMAN.

B10: P1124_IXORI (other)
chain: DSKGTSDSQDSTKSIKVDFCETNCTKTDGGWTGCTGDCICVSVGDSIEGRCMDFG
On to B10, for which the Kd with CXCL5 worked out at 26.4 nM; with CXCL2, 13.8 nM; with CXCL6 it was 231 nM; with CXCL13, 256 nM; with CXCL1_HUMAN it was 7.61 nM; in the assay with CXCL3_HUMAN, 8.84 nM.

B11: P1096_IXORI (other)
chain: HTTVTGSVEGKPNNPNEDIEVSYCRMNCTVENGVSSACSGDCVCVHRDNEPNGICVEITYFGDFGDPSQDPSIDEAAPRESVSKRRSNGES
B11: the affinity with CXCL8_HUMAN, expressed as Kd, was 44.7 nM.

B12: P1078_IXORI (other)
chain: GSKGSSAQQSSHDSIKAEFCETNCTMKTGGKWTQCHGGCFCVHVGNETVGRCIKLDGDYDYPSSKHEE
On to B12, for which the Kd in the assay with CXCL5 is 39.2 nM; with CXCL2, 68.3 nM; with CXCL6 it was 9.24 nM; in the assay with CXCL11_HUMAN it was 16.7 nM; with CXCL13, 255 nM; with CXCL1_HUMAN, 6.35 nM. In the assay with CXCL3_HUMAN, this molecule came in with a Kd of 43.8 nM.

B13: P1128_IXORI (other)
chain: KDDEHFSVDYCGMNCTQQEDGSWTACSGRNEECRCYHESGKKNGLCLSTTYIDFSQYGNPSDSDIAAASPRP
For the molecule B13, the Kd with CXCL5 is 62.2 nM; in the assay with CXCL2, 5.57 nM; with CXCL8_HUMAN it was 2.3 nM; with CXCL1_HUMAN, 0.722 nM; with CXCL3_HUMAN, 38.5 nM.

B14: P1166_IXORI (other)
chain: GPETKEDKKSDVYELFTVEYCGTNCTLLTNGRWTACTGKKGTCRCYHESGEKVGLCLSTEYTDFSEYPNPKSSEIDAAAPLPRETH
As for B14, the results for the Kd with CXCL2, in the assay with CXCL8_HUMAN and with CXCL1_HUMAN were 149 nM, 129 nM and 12.9 nM, respectively.

B15: P1162_IXORI (other)
chain: LNDEELFTVDYCGTNCTQQPNGSWTTCPGNCSCYHEDGKTDGFCLSTEYTDFTQFPNLTSEEMDAATPRPE
For the molecule B15, the equilibrium dissociation constant (Kd) was found to be 32.1 nM with CXCL5; 14.4 nM in the assay with CXCL2; 12.2 nM with CXCL8_HUMAN; 2.66 nM with CXCL1_HUMAN; 60.1 nM with CXCL3_HUMAN.

B16: P1172_IXORI (other)
chain: LHEDEIFTVDYCGTNCTKQSNGSWTTCPGNCSCYHEDGKTDGFCLSTEYTDFTQFPNLTSEEMDAATPRPE
For the molecule B16, the dissociation constant Kd stood at 59.3 nM with CXCL5, 26 nM with CXCL2, 26.7 nM with CXCL8_HUMAN and 5.59 nM in the assay with CXCL1_HUMAN.

B17: P1127_IXORI (other)
chain: AGKDDEHFSVDYCGMNCTQQEDGSWTACSGRNGECRCYHESGKRSGLCLSTTYIDFSEYGNLSDSDIAAASPRLSMKESH
For B17, the dissociation constant Kd with CXCL5 was determined as 26.6 nM; in the assay with CXCL2, 27.8 nM; in the assay with CXCL8_HUMAN it was 13.3 nM; in the assay with CXCL1_HUMAN, 1.42 nM; in the assay with CXCL3_HUMAN it was 68.8 nM.

B18: EVA3_RHISA (protein)
chain: LVSTIESRTSGDGADNFDVVSCNKNCTSGQNECPEGCFCGLLGQNKKGHCYKIIGNLSGEPPVVRR
As to B18, the Kd with CXCL8_HUMAN was determined as 2.57 nM; in the assay with CXCL1_HUMAN, 5.73 nM; with CXCL3_HUMAN, 7.37 nM.

B19: P1134_IXORI (other)
chain: NEEVFTVEYCGMNCTQKSDGTWTECSGKNKDCRCYHESDAREGLCLSTEYTDFSQFETPSNSDLEAATPRPRKTLYPVRNPHGPKTRGLGYDKRILRDRVKFLI
B19 returned a Kd with CXCL1_HUMAN of 27.3 nM.

B20: P1132_IXORI (other)
chain: LSDEDELFSVEYCGTNCTKQDTGSWTTCSGNCTCYHEDGKKVGLCLSTEYTDFTKFPKPTSEEIANARPLPKREKTLN
As for B20, the Kd turned out to be 152 nM in the assay with CXCL5, 18.6 nM with CXCL2, 32.8 nM with CXCL8_HUMAN and 11.9 nM in the assay with CXCL1_HUMAN.
